Values belong to the molecule of their own block, whether it stands above or below them.
Key:
[1] = target: HFBI variant D40Q/D43N (Trichoderma reesei) (UniProt P52754); test: QCM-D, enzyme injected over adsorbed D40Q/D43N layer, pH series
[2] = target: HFBI variant D40Q/D43N (Trichoderma reesei) (UniProt P52754); test: QCM-D, enzyme injected over adsorbed D40Q/D43N layer, around pH 5

Chain of UniProt P52754 (P52754 23-97 D62Q/D65N, form in doubt): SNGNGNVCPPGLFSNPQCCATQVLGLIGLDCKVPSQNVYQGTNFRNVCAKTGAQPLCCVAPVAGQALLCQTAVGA

adsorbed mass [1]: 55 to 100 ng/cm^2
Molecule: Trichoderma reesei xylanase II (from UniProt P36217 34-223) (enzyme)

maximum adsorption (adsorbed mass) [2]: 600 ng/cm^2
B1: Trichoderma reesei cellobiohydrolase I (enzyme, UniProt P62694 18-513, looked up)
chain: QSACTLQSETHPPLTWQKCSSGGTCTQQTGSVVIDANWRWTHATNSSTNCYDGNTWSSTLCPDNETCAKNCCLDGAAYASTYGVTTSGNSLSIGFVTQSAQKNVGARLYLMASDTTYQEFTLLGNEFSFDVDVSQLPCGLNGALYFVSMDADGGVSKYPTNTAGAKYGTGYCDSQCPRDLKFINGQANVEGWEPSSNNANTGIGGHGSCCSEMDIWEANSISEALTPHPCTTVGQEICEGDGCGGTYSDNRYGGTCDPDGCDWNPYRLGNTSFYGPGSSFTLDTTKKLTVVTQFETSGAINRYYVQNGVTFQQPNAELGSYSGNELNDDYCTAEEAEFGGSSFSDKGGLTQFKKATSGGMVLVMSLWDDYYANMLWLDSTYPTNETSSTPGAVRGSCSTSSGVPAQVESQSPNAKVTFSNIKFGPIGSTGNPSGGNPPGGNRGTTTTRRPATTTGSSPGPTQSHYGQCGGIGYSGPTVCASGTTCQVLNPYYSQCL
